{"source": "paper PMC3037364", "molecular_target": "TgAMA1, intact full-length integral membrane form (Toxoplasma gondii (endogenous in RH strain parasites)) (UniProt B6KAM0)", "sequence (B6KAM0 67-569)": "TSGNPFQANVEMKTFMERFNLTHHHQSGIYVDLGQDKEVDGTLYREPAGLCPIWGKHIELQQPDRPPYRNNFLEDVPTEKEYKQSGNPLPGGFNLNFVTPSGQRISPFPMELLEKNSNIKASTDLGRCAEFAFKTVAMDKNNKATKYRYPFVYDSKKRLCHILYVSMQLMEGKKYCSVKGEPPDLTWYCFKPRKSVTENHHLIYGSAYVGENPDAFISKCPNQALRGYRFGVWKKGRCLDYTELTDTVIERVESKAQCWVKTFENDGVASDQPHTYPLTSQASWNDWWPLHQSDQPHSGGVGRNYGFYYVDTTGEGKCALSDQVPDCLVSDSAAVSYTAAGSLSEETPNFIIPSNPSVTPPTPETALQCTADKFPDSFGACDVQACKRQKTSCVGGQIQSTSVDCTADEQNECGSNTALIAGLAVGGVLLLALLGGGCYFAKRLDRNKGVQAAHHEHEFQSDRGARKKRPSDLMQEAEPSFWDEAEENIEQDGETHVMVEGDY", "data": [{"substance": "GST-domain 3 (D3) of TgRON2 (domain or fragment)", "values": [{"measurement": "decrease in invasion efficiency of RHΔama1/AMA1-myc parasites (about 10% of wild-type TgAMA1 level) after pre-incubation with 2.5-5 µM GST-D3, relative to buffer control", "value": 87, "unit": "%"}]}]}
